These results are taken from article PMC8113883, “Wild-type sTREM2 blocks Aβ aggregation and neurotoxicity, but the Alzheimer's R47H mutant increases Aβ aggregation” (The Journal of Biological Chemistry, 2021).

The assay concerns the target T1, HiLyte Fluor 488-labeled Aβ42 oligomers (human, UniProt P05067 672-713, HiLyte Fluor 488 label (position not given)).
T1 construct: amyloid beta peptide 1-42 (Aβ42), human; cut product of the amyloid precursor protein; Oligomeric species of the 6 h aggregation mixture, told apart from monomers by photobleaching; also called oligomeric Aβ; Aβ oligomers; source: bought: AnaSpec; aggregated at 0.5 μM in PBS pH 7.4 for 6 h in a shaking incubator
Kind of assay: single-molecule TIRF two-color coincidence detection; HiLyte Fluor 488 Aβ aggregated 6 h (0.5 μM, PBS pH 7.4), dye-labeled sTREM2 added and imaged; monomers and oligomers told apart by photobleaching; chance coincidence subtracted. The conditions noted are these: both partners purified.

B1: dye-labeled wild-type sTREM2 (TREM2 ectodomain) for TIRF imaging (domain or fragment, human, UniProt Q9NZC2 19-143, looked up)
chain: HNTTVFQGVAGQSLQVSCPYDSMKHWGRRKAWCRQLGEKGPCQRVVSTHNLWLLSFLRRWNGSTAITDDTLGGTLTITLRNLQPHDAGLYQCQSLHGSEADTLRKVLVEVLADPLDHRDAGDLWF
modifications: TAMRA dye (results) or AF647 (methods), position not stated
notes: TREM2, human, residues 19-143 (soluble ectodomain); also called TAMRA-dye labeled sTREM2; AF647-TREM2; source: Freestyle 293-F, transfected (pHLSec), purified from conditioned medium (IMAC, gel filtration); dye-labeled
As to B1, the binding result is “binds”.
